Source: article PMC7376121, “In-Lipid Structure of Pressure-Sensitive Domains Hints Mechanosensitive Channel Functional Diversity” (Biophysical Journal, 2020)
Where a chain is given by its changes, count along the chain named. Names may count otherwise.

B1: Mycobacterium tuberculosis MscL Y87C, MTSSL spin-labelled (TbMscL Y87R1) (natural protein)
chain: MLKGFKEFLARGNIVDLAVAVVIGTAFTALVTKFTDSIITPLINRIGVNAQSDVGILRIGIGGGQTIDLNVLLSAAINFFLIAFAVCFLVVLPYNTLRKKGEVEQPGDTQVVLLTEIRDLLAQTNGDSPGRHGGRGTPSPTDGPRASTESQ
modifications: MTSSL spin label on the cysteine at 87 (R1)
notes: also called TbY87R1
B2: Mycobacterium tuberculosis MscL F88C, MTSSL spin-labelled (TbMscL F88R1) (natural protein)
chain: B1 chain with C87Y, F88C
modifications: MTSSL spin label on the cysteine at 88 (R1)
notes: also called TbF88R1
B3: Mycobacterium tuberculosis MscL L89C, MTSSL spin-labelled (TbMscL L89R1) (natural protein)
chain: B1 chain with C87Y, L89C
modifications: MTSSL spin label on the cysteine at 89 (R1)
notes: also called TbL89R1

Target: the molecule itself
Assay: PELDOR/DEER; spin-labelled single-cysteine channel in DDM detergent solution (50 mM sodium phosphate pH 7.5, 300 mM NaCl, 0.05% DDM), diluted 1:1 with deuterated ethylene glycol, flash frozen; Q band, 50 K; distances between the labels of the subunits of one channel

Row | Protein | stoichiometry N
1 | B1 | 5
2 | B2 | 5
3 | B3 | 5
